One substance from publication PMC4360532 can be followed below.

The data set has as its system Rev full-length wild-type (HIV-1 (HXB3?)). The data set is described as follows: EMSA. To be noted: 10 mM HEPES pH 7.5, 0.1 M KCl (0.3 M KCl and no tRNA for SYBR Green II assay), 1 mM MgCl2, 0.5 mM EDTA, 2 mM DTT, 10% glycerol, 50 ug/ml yeast tRNA, 0.2 mg/ml ….

In turn, RRE full-length 234 nt registered an equilibrium dissociation constant (Kd) of 145 pM.

Usually Kd stands for the equilibrium constant for the complex coming apart.
